Measured values reported in US20240384250A1, “FIBROBLAST GROWTH FACTOR 23 MODULATING COMPOUNDS” (THE UAB RESEARCH FOUNDATION, priority 2021, published 2024).
Entries after “also recorded” stand apart in the source; their conditions may differ.

Columns and labels:
[1] = target: T1, FGF23 binding to FGFR1c (Homo sapiens, UniProt P11362+Q9GZV9); assay: Plate-based binding, FGF23 coated, then sKL, heparin or PBS, then Fc-FGFR; conditions: with sKL, with heparin 0.4 USP, or alone
T1 construct: Fc-coupled FGFR ectodomains were immobilized on protein A/G beads; purchased R&D Systems 2604FG025/CF or 2629FG025/CF; 658FR050
T1 sequence (Q9GZV9 25-251): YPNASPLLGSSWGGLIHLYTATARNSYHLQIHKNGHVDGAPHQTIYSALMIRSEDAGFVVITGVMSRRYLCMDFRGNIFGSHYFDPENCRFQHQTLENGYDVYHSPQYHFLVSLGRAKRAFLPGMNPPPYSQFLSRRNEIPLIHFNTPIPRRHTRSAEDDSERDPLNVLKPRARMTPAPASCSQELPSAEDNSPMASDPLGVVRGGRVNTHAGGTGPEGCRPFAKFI
T1 sequence (P11362 22-376 limits assumed): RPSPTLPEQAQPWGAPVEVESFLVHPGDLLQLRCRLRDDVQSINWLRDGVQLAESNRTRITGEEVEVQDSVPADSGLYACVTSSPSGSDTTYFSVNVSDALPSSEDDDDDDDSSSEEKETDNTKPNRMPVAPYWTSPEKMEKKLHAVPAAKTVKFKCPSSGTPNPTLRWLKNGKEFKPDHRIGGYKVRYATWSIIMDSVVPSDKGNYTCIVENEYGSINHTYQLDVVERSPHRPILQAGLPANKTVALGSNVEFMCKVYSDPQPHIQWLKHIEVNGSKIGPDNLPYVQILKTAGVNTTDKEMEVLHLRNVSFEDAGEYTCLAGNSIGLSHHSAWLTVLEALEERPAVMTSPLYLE
Description: (§1) Proteins were coated on 96-well plates (MaxiSorp; 439454, Thermo Fisher Scientific), and proteins were added to wells in 100 μl of enzyme-linked immunosorbent assay (ELISA) coating buffer (E107, Bethyl Laboratories) with a lid placed overtop and incubated at 4° C. overnight. Plates were washed 5× with 350 μl of assay buffer (50 mM Tris [pH 7.4], 200 mM NaCl, 0.01% Tween 20) on a 50 TS microplate washer (BioTek). Plates were blocked for 1 hour in 200 μl of assay buffer with 0.5% BSA. Plates were washed as before, and proteins were incubated on plates in 100 μl of assay buffer with 0.5% BSA. Proteins or heparin was incubated in orders described in the respective figure legends. Assays using FLAG-tag-based detection were incubated with anti-FLAG coupled to HRP at 1:20,000, and assays using Fc detection were incubated with anti-human Fc coupled to HRP at 1:10,000. Plates were washed as above, and 100 μl of 3,3′,5,5′-tetramethylbenzidine (TMB) substrate (E102, Bethyl Laboratories) was added for 15 to 20 minutes until positive wells developed a dark blue color. Reactions were stopped with ELISA stop solution (E115, Bethyl Laboratories) and analyzed using the Synergy HI plate reader (BioTek) at 450 nm wavelength. […] As a control to remove background absorbance values, wells were coated with an equal amount of BSA to match the amount of protein coated in experimental wells and treated the same as experimental wells. To study the effects of sKL on the binding between paracrine FGFs and FGFRs, plates were run as above except coated with paracrine FGFs. Fc-FGFR1 was preincubated with sKL or vehicle for 60 minutes, and then the combination was added to wells and the assay was run as before.

[2] = target: T2, FGF23 binding to FGFR2c (Homo sapiens, UniProt P21802); assay: as above; conditions: with sKL, with heparin 0.4 USP, or alone
T2 construct: Fc-coupled FGFR ectodomains were immobilized on protein A/G beads; purchased R&D Systems 2604FG025/CF or 2629FG025/CF; 712FR050
T2 sequence (P21802 22-377 limits assumed): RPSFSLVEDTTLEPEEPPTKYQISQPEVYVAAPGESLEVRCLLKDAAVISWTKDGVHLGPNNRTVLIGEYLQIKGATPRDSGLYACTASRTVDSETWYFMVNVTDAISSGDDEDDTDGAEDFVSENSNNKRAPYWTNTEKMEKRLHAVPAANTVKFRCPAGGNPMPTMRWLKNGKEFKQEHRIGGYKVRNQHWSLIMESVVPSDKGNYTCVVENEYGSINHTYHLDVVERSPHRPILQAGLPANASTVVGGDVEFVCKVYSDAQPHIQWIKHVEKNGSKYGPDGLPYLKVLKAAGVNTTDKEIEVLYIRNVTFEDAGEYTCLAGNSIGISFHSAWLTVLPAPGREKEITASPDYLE
Description: as §1

[3] = target: T3, FGF23 binding to FGFR3c (Homo sapiens, UniProt P22607+Q9GZV9); assay: as above; conditions: with sKL, with heparin 0.4 USP, or alone
T3 construct: Fc-coupled FGFR ectodomains were immobilized on protein A/G beads; purchased R&D Systems 2604FG025/CF or 2629FG025/CF; 766FR050
T3 sequence (Q9GZV9 25-251): T1 sequence (Q9GZV9 25-251)
T3 sequence (P22607 23-375 limits assumed): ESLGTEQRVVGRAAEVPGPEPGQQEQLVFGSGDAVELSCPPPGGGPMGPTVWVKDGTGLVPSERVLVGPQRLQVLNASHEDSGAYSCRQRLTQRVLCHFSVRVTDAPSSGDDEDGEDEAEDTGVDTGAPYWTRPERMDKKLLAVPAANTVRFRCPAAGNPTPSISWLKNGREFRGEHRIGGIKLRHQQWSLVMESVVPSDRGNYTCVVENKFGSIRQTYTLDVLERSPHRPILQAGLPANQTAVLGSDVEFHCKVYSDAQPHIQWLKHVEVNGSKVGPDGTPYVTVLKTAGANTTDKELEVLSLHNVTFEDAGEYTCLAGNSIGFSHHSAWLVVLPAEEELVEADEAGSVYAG
Description: as §1

[4] = tested on: FGF21 binding to FGFR isoforms 1c, 2c, 3c, 4; assay: Pull-down and plate binding of FGF21 to FGFR isoforms with sKL or heparin; parameters: species or system human
Description: To study the interaction between Fc-tagged FGFR isoforms (Fc-FGFR), FGF isoforms, and sKL, immunoprecipitation studies were conducted. Protein A beads (6501, BioVision) and protein G beads (6511, BioVision) were used at 25 μl of a 50% stock slurry per sample in a total bead volume of 50 μl. Beads were washed 5× in activity buffer (50 mM Tris [pH 7.4], 200 mM NaCl, 0.01% Tween 20). Bead spin-down assays were all performed for 2 minutes at 5000 g. Beads were resuspended in 1 ml of activity buffer in a 1.5-ml snap cap tube. One microgram of Fc-FGFR1 to 4 was incubated with the beads for 1 hour on a bead rotator. Control samples were incubated with 2 μg of anti-FGF antibody instead of Fc-FGFR. […] Samples were analyzed using SDS-PAGE and Western blotting.
Proteins were coated on 96-well plates (MaxiSorp; 439454, Thermo Fisher Scientific), and proteins were added to wells in 100 μl of enzyme-linked immunosorbent assay (ELISA) coating buffer (E107, Bethyl Laboratories) with a lid placed overtop and incubated at 4° C. overnight. […] Reactions were stopped with ELISA stop solution (E115, Bethyl Laboratories) and analyzed using the Synergy HI plate reader (BioTek) at 450 nm wavelength. […] As a control to remove background absorbance values, wells were coated with an equal amount of BSA to match the amount of protein coated in experimental wells and treated the same as experimental wells. […]

B1: sKL: recombinant soluble α-klotho ectodomain, mouse aa 35-982 and human aa 34-981, FLAG- or Strep/His-tagged, purified from HEK293 cells (protein)
chain: EPGDGAQTWARFSRPPAPEAAGLFQGTFPDGFLWAVGSAAYQTEGGWQQHGKGASIWDTFTHHPLAPPGDSRNASLPLGAPSPLQPATGDVASDSYNNVFRDTEALRELGVTHYRFSISWARVLPNGSAGVPNREGLRYYRRLLERLRELGVQPVVTLYHWDLPQRLQDAYGGWANRALADHFRDYAELCFRHFGGQVKYWITIDNPYVVAWHGYATGRLAPGIRGSPRLGYLVAHNLLLAHAKVWHLYNTSFRPTQGGQVSIALSSHWINPRRMTDHSIKECQKSLDFVLGWFAKPVFIDGDYPESMKNNLSSILPDFTESEKKFIKGTADFFALCFGPTLSFQLLDPHMKFRQLESPNLRQLLSWIDLEFNHPQIFIVENGWFVSGTTKRDDAKYMYYLKKFIMETLKAIKLDGVDVIGYTAWSLMDGFEWHRGYSIRRGLFYVDFLSQDKMLLPKSSALFYQKLIEKNGFPPLPENQPLEGTFPCDFAWGVVDNYIQVDTTLSQFTDLNVYLWDVHHSKRLIKVDGVVTKKRKSYCVDFAAIQPQIALLQEMHVTHFRFSLDWALILPLGNQSQVNHTILQYYRCMASELVRVNITPVVALWQPMAPNQGLPRLLARQGAWENPYTALAFAEYARLCFQELGHHVKLWITMNEPYTRNMTYSAGHNLLKAHALAWHVYNEKFRHAQNGKISIALQADWIEPACPFSQKDKEVAERVLEFDIGWLAEPIFGSGDYPWVMRDWLNQRNNFLLPYFTEDEKKLIQGTFDFLALSHYTTILVDSEKEDPIKYNDYLEVQEMTDITWLNSPSQVAVVPWGLRKVLNWLKFKYGDLPMYIISNGIDDGLHAEDDQLRVYYMQNYINEALKAHILDGINLCGYFAYSFNDRTAPRFGLYRYAADQFEPKASMKHYRKIIDSNGFPGPETLERFCPEEFTVCTECSFFHTRKS
modifications: left off: small tags and cut ends
notes: recombinant soluble α-klotho ectodomain, mouse aa 35-982 and human aa 34-981, FLAG- or Strep/His-tagged, purified from HEK293 cells
- binding of coated FGF23 to Fc-FGFR1c [1]: highest FGF23-sKL affinities; also recorded: increased; also recorded: the strongest
- binding of coated FGF23 to Fc-FGFR2c [2]: no binding
- binding of coated FGF23 to Fc-FGFR3c [3]: lower affinity; also recorded: weaker binding
- binding of FGF21 to any of the FGFR isoforms [4]: did not mediate binding; also recorded: did not lead to complex formation; also recorded: did not bind any of the FGFR isoforms
